# Reference: patent US20240100176A1 (Eli Lilly, published 2024)
# Changes are numbered by the printed parent chain.
# B1: anti-human IL-4Rα antibody Ab4 (antibody, human IgG4 S228P, kappa)
# heavy: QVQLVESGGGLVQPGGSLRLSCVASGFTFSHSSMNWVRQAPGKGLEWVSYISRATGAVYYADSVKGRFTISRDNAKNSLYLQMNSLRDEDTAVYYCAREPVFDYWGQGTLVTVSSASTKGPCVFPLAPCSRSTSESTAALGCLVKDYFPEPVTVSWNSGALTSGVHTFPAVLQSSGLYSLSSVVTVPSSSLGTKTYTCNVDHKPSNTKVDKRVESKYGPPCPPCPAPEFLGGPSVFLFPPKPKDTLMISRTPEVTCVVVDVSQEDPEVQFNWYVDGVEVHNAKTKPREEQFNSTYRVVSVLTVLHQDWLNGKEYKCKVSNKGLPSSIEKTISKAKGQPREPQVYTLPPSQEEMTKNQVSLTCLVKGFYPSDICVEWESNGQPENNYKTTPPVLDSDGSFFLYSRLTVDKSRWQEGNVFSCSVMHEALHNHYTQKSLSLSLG
# light: DIQMTQSPSAMSASVGDRVTITCRASQDISNYLAWFQQKPGKVPTRLIYAASSLQSGVPSRFSGSGSGTEFTLTISSLQPEDFATYYCLQWSSYPRTFGQGTKVEIKRTVAAPSVFIFPPSDEQLKSGTASVVCLLNNFYPREAKVQWKVDNALQSGNSQESVTEQDSKDSTYSLSSTLTLSKADYEKHKVYACEVTHQGLSSPVTKSFNRGEC
# B2: effector null anti-human IL-4Rα antibody Ab8 (antibody, human IgG1, kappa, L234A L235A)
# heavy: QVQLVESGGGLVQPGGSLRLSCVASGFTFSHSSMNWVRQAPGKGLEWVSYISRATGAVYYADSVKGRFTISRDNAKNSLYLQMNSLRDEDTAVYYCAREPVFDYWGQGTLVTVSSASTKGPCVFPLAPSSKSTSGGTAALGCLVKDYFPEPVTVSWNSGALTSGVHTFPAVLQSSGLYSLSSVVTVPSSSLGTQTYICNVNHKPSNTKVDKRVEPKSCDKTHTCPPCPAPEAAGGPSVFLFPPKPKDTLMISRTPEVTCVVVDVSHEDPEVKFNWYVDGVEVHNAKTKPREEQYNSTYRVVSVLTVLHQDWLNGKEYKCKVSNKALAAPIEKTISKAKGQPREPQVYTLPPSREEMTKNQVSLTCLVKGFYPSDICVEWESNGQPENNYKTTPPVLDSDGSFFLYSKLTVDKSRWQQGNVFSCSVMHEALHNHYTQKSLSLSPGK
# light: B1 light
# notes: Effector null backbone
# B3: anti-human IL-4Rα antibody Ab9 (antibody, human IgG4 S228P, kappa, V domains shown)
# VH: QVQLVESGGGLVQPGGSLRLSCAASGFTFSHSSMNWVRQAPGKGLEWVSYISRATGAVYYADSVKGRFTISRDNAKNSLYLQMNSLRDEDTAVYYCAREPVFDYWGQGTLVTVSS
# VL: DIQMTQSPSAMSASVGDRVTITCRASQGISNYLAWFQQKPGKVPTRLIYAASSLQSGVPSRFSGSGSGTEFTLTISSLQPEDFATYYCLQWSSYPRTFGQGTKVEIKR
# B4: anti-human IL-4Rα antibody Ab10 (antibody, human IgG4 S228P, kappa, F234A L235A, V domains shown)
# VH: B3 VH with H31I, V58I, D73N
# VL: B3 VL with W91H, S92N
# B5: Ab9 Fab (hexahistidine tagged IgG1 heavy chain truncated after CH1, Crystal Kappa light chain) (Fab, V domains shown)
# VH: B3 VH
# VL: DIQMTQSPSAMSASVGDRVTITCRASQGISNYLAWFQQKPGKVPTRLIYAASSLQSGVPSRFSGSGSGTEFTLTISSLQPEDFATYYCLQWSSYPRTFGQGTKVEIK
# notes: Construct for co-crystallisation; also called Fab portion of Ab9; Ab9 variant
# B6: Ab1 Fab (Crystal Kappa design) (Fab, V domains shown)
# VH: B3 VH with A23V
# VL: B5 VL with G28D
# notes: Construct for co-crystallisation; also called Fab of the Ab1; anti-human IL-4Rα Ab1 Fab
# Experiments:
# [1] = target: T1, hexahistidine-tagged human IL-4Rα extracellular domain (human, UniProt P24394 26-232); assay: competition MSD ELISA (solution equilibrium, 37 °C), apparent KD, single experiment
# T1 construct: In the MSD assay the plate coat is the His-tagged ECD; also called human IL-4Rα ECD; Wild type receptor; not shown: hexahistidine tag
# T1 sequence: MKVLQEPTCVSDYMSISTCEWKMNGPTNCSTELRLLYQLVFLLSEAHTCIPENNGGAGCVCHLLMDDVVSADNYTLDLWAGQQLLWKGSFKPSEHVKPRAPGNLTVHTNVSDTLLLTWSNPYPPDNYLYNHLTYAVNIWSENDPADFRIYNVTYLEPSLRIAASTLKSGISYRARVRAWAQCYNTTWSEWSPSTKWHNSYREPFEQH
# Method: (§1) Example 3a. […] A 96-well multi-array plate (Meso Scale Diagnostics, Cat. #L15XA-3) was coated at 4° C. overnight with 0.5 μg/mL hexahistidine-tagged human or cynomolgus monkey IL-4Rα ECD in phosphate buffered saline (PBS). Following coating, plates were washed 10 times with 200 μL PBST (PBS with 0.05% Tween® 20) and blocked with 300 μL/well of PBS casein blocking buffer (Pierce, Cat. #37528) at 37° C. for 1 hour. Plates were then washed 10 times as above, and 50 μL of the preincubated antibody:IL-4Rα dilution series was transferred to the wells and incubated at 37° C. with 300 rpm shaking for […]. Plates were washed 10 times with PBST, 50 μL of 1 μg/mL anti-human antibody sulfo-tag 20 (Meso Scale Diagnostics, Cat. #R32AJ-1) was added to the plates for the assay of Table 7a, and anti-Human NHP Kappa Light chain SULFO-TAG 20 (Meso Scale Diagnostics, Cat #D20TF-6) was added to the plates for the assay of Table 7b, and plates were incubated at 37° C. with 300 rpm shaking for 30 minutes. Plates were washed 10 times with PBST, 150 μL/well of 1× Read Buffer T was added to the wells and analyzed on a SECTOR® Imager 6000 (Meso Scale Diagnostics) 15 min after buffer addition. The apparent KD is determined by fitting a sigmoidal curve to the electrochemiluminescence (ECL) response vs. log (soluble IL-4Rα concentration) using GraphPad Prism 9. Data is graphed with normalized ECL values.
# [2] = target: T2, hexahistidine-tagged cynomolgus monkey IL-4Rα extracellular domain (cynomolgus monkey, UniProt P24394 26-231 (human entry)); assay: as above
# T2 construct: also called cynomolgus monkey IL-4Rα ECD; not shown: hexahistidine tag
# T2 chain: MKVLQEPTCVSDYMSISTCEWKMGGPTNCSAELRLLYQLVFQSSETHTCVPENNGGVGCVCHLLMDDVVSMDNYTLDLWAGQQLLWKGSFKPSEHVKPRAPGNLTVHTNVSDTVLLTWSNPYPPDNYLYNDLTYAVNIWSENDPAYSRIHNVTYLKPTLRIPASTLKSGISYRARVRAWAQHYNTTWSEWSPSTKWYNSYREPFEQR
# Method: as §1
# [3] = target: T3, human IL-4Rα on cells (human PBMC B cells and CD4+ T cells, Daudi cells, HEK-Blue IL-4/IL-13 cells, myeloid … (human, UniProt P24394 26-825)); assay: flow cytometry on human PBMCs, B cells, Alexa Fluor 647 labelled antibody
# T3 sequence: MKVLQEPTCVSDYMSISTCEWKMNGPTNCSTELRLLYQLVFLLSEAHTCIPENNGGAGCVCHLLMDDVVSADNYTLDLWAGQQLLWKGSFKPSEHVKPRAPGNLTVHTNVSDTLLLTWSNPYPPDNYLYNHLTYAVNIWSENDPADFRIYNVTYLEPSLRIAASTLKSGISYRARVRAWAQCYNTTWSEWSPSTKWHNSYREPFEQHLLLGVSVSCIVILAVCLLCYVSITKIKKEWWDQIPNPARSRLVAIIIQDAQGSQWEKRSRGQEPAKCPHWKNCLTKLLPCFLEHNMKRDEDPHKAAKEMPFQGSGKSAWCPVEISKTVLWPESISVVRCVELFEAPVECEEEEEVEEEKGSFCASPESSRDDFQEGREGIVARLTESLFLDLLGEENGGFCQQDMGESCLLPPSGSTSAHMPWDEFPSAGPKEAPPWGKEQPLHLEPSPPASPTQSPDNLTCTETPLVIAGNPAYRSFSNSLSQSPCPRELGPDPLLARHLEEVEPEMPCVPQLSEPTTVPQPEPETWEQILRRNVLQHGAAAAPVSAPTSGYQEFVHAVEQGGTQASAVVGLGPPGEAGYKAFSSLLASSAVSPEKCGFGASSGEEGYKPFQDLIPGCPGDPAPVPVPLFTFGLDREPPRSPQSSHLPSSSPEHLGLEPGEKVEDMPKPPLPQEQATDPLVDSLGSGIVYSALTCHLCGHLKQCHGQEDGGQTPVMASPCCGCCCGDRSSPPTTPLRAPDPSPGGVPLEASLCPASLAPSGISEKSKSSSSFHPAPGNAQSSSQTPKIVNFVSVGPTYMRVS
# Method: Example 3b. Binding to B cells and T cells: Binding of the exemplified anti-human IL-4Rα antibodies to B cells and T cells was tested in a Fluorescence Activated Cell Sorting (FACS) assay. […] Freshly isolated cells PBMCs were resuspended at 2×10⁶ cells/mL and allowed to rest for 15 minutes at room temperature, then plated at 100 μL/well into a round bottom 96-well plate (COSTAR®) and washed with FACS buffer (PBS containing 2% fetal bovine serum from Corning®). Exemplified anti-human IL-4Rα antibodies and the respective control IgG antibodies conjugated to Alexa Fluor® 647 according to manufacturer's protocol (Thermo Fisher Scientific) were added to the wells at 66.67 nM and diluted 4-fold in duplicate. Equivalent volume of 2× antibody cocktail containing: Human TruStain FcX™. FITC anti-human CD3 Antibody, Alexa Fluor® 700 anti-human CD4 Antibody (all from Biolegend®) and CD20 Monoclonal Antibody (2H7), PerCP-Cyanine5.5 (Thermo Fisher Scientific) was then added to the wells. Cells were incubated at 4° C. for 30 minutes, washed twice with FACS buffer and resuspended in a final volume of 100 μL FACS buffer. Viability dye, Sytox™ blue (Thermo Fisher Scientific), was added and the samples were analyzed via a flow cytometer (LSRFortessa™ X-20; BD BIOSCIENCES). Data analysis was performed using FlowJo software and statistical analysis was performed using GraphPad Prism 9. […]
# [4] = target: T3, human IL-4Rα on cells (human PBMC B …); assay: cell-based or functional assay
# [5] = target: T4, hexahistidine tagged human IL-4Rα ECD containing a C182L mutation (human, UniProt P24394 26-232); assay: X-ray co-crystal structure
# T4 construct: Stated for the Ab9 Fab crystal; also called IL-4Rα ECD (crystallisation construct); not shown: hexahistidine tag
binder,measurement,setting,value
B1,Kd,[1],0.0246 nM
same,Kd,[2],0.0315 nM
B2,EC50,[3],1.07 nM
B3,IL-4 IC50 (nM): inhibition of IL-4 induced SEAP activity in HEK-Blue IL-4R and IL-13R expressing cells,[4],0.03 nM
same,IL-13 IC50 (nM): inhibition of IL-13 induced SEAP activity in HEK-Blue IL-4R and IL-13R expressing cells,[4],0.24 nM
B4,IL-4 IC50 (nM): inhibition of IL-4 induced SEAP activity in HEK-Blue IL-4R and IL-13R expressing cells,[4],3.45 nM
same,IL-13 IC50 (nM): inhibition of IL-13 induced SEAP activity in HEK-Blue IL-4R and IL-13R expressing cells,[4],> 35 nM
B5,binding result,[5],binds
B6,binding result,[5],binds
